# Where a chain is given by its changes, count along the chain named. Several values for one entry are separate records, joined by “and”; a condition that tells them apart may be missing. Equal values may be shown once.
# T1: human CD40 (H76R, W109L, L121P) Fc fusion (human)
# T1 construct: As m1 with H76R, W109L and L121P; also called hCD40-M5; not shown: human IgG1 Fc
# T1 chain: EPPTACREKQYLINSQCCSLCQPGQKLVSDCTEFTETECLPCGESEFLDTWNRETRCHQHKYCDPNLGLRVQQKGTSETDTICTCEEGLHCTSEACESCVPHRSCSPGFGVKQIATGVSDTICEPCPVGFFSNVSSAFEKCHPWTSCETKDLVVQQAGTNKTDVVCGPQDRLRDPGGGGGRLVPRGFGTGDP
# T2: wild type cynomolgus monkey CD40 Fc fusion (cynomolgus monkey; human)
# T2 construct: also called wt-cyno-CD40; wt-cCD40; not shown: human IgG1 Fc
# T2 chain: T1 chain with A95S, S106L, H142R, L172Q
# T3: Macaca fascicularis CD40 (Macaca fascicularis (cynomolgus monkey), UniProt P25942 21-277 (human entry))
# T3 chain: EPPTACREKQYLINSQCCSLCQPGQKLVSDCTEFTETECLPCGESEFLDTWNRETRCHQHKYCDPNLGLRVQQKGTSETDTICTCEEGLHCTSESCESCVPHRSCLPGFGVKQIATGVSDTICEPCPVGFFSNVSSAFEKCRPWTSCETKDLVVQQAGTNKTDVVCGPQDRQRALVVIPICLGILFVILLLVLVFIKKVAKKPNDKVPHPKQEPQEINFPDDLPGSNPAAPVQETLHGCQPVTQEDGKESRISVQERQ
# B1: BMS3h-56-1 (other)
# VH: EVQLLESGGGLVQPGGSLRLSCAASGFTFRDYEMWWVRQAPGKGLERVSAINPQGTRTYYADSVKGRFTISRDNSKNTLYLQMNSLRAEDTAVYYCAKLPFTFEDWGQGTLVTVSS
# notes: domain antibody (dAb), single VH domain; also called 3h-56-l
# B2: BMS3h-56-2 (other)
# VH: B1 VH with E104D
# notes: domain antibody (dAb), single VH domain
# B3: BMS3h-56-5 (other)
# VH: B1 VH with K65M, E104D
# notes: as for B2
# B4: BMS3h-56-202 (other)
# VH: B1 VH with F101T, T102Y, E104S, W106R
# notes: as for B2
# B5: BMS3h-56-206 (other)
# VH: B1 VH with Y95H, F101M, T102F, S116N
# notes: as for B2
# B6: BMS3h-56-217 (other)
# VH: B1 VH with Q54W, T56S, R57L
# notes: as for B2
# B7: BMS3h-56-201 (other)
# VH: B1 VH with T102Y, E104Q, D105E
# notes: domain antibody (dAb): single human VH domain
# B8: BMS3h-56-203 (other)
# VH: B1 VH with T102F, D105E
# notes: as for B7
# B9: BMS3h-56-215 (other)
# VH: B1 VH with Q54H, T56S, R57L, E104D
# notes: as for B7
# B10: BMS3h-202 (other)
# VH: EVQLLESGGGLVQPGGSLRLSCAASGFTFPTAEMVWVRQAPGKGLEWVSSISASGGSTYYADSVKGRFTISRDNSKNTLYLQMNSLRAEDTAVYYCAKEPVSYVATFDYWGQGTLVTVSS
# notes: dAb, single VH
# B11: BMS3h-38 (other)
# VH: EVQLLESGGGLVQPGGSLRLSCAASGFTFEEEEMIWVRQAPGKGLEWVSAISGSGGSTYYADSVKGRFTISRDNSKNTLYLQMNSLRAEDTAVYYCAKEPFRFDYWGQGTLVTVSS
# notes: dAb, single VH
# B12: BMS3h-41 (other)
# VH: B11 VH with E30T, E32Y, A50S, S54N, G56A, S57N, F101L
# notes: dAb, single VH
# B13: BMS3h-43 (other)
# VH: EVQLLESGGGLVQPGGSLRLSCTASGFTFNMYEMSWVRQAPGKGLEWVSGISRRGFTTYYADSVKGRFTISRDNSKNTLYLQMNSLRAEDTAVYYCAKEPITYAMRYARFDYWGQGTLVTVSS
# B14: BMS3h-56 (other)
# VH: B1 VH with T102I, E104D, D105Y
# B15: BMS3h-56-5 (other)
# VH: B1 VH with K65M, E104D
# B16: BMS3h-131 (other)
# VL: DIQMTQSPSSLSASVGDRVTITCRANSSILWALAWYQQKPGKAPKLLIESSSGLQSGVPSRFSGSGSGTDFTLTISSLQPEDFATYYCVQNAGWPGTFGQGTKVEIKR
# B17: BMS3h-131-2 (other)
# VL: B16 VL with N26D, G93V
# B18: BMS3h-106 (other)
# VH: EVQLLESGGGLVQPGGSLRLSCAASGFTFSTYHMQWVRQAPGKGLEWVSMIDADGLGTYYADSVKGRFTISRDNSKNTLYLQMNSLRAEDTAVYYCAKPGPQFGQFDYWGQGTLVTVSS
# B19: BMS3h-107 (other)
# VH: EVQLLESGGGLVQPGGSLRLSCAASGFTFSGYDMQWVRQAPGKGLEWVSTISASGVFTYYADSVKGRFTTSRDNSKNTLYLQMNSLRAEDTAVYYCAKYPNRFALNNFDYWGQGTLVTVSS
# B20: BMS3h-197 (other)
# VH: EVQLLESGGGLVQPGGSLRLSCAASGFTFGSAAMDWVRQAPGKGLEWVSSINDMGSNTYYADSVKGRFTISRDNSKNTLYLQMNSLRAEDTAVYYCAKQGGRFDYWGQGTLVTVSS
# B21: BMS3h-37 (other)
# VH: B11 VH with E31W, E32Y, I35Q, S54D, G56Y, S57R, P100L, F101G, R102Y
# B22: BMS3h-37-2 (other)
# VH: EVQLLESGGGLVQPGGSLRLSCAASGFTFEWYEMQWVRRAPGKGLEWVSAISGDGYRTYYADSVKGRFTISRDNSKNTLYLQMNSLRAEDTAVYYCAKELGYFDYWGRGTLVTVSS
# B23: BMS3h-38 (other)
# VH: B11 VH
# B24: BMS3h-38-2 (other)
# VH: B11 VH with E6A, A97G, F103Y
# B25: BMS3h-56-202 (other)
# VH: B1 VH with F101T, T102Y, E104S, W106R
# B26: BMS3h-56-206 (other)
# VH: B1 VH with Y95H, F101M, T102F, S116N
# Biological target: T4, human CD40 (W109L, L121P) Fc fusion (human, UniProt P25942 21-193)
# T4 construct: As m1 with W109L and L121P; also called hCD40-M4; not shown: human IgG1 Fc
# Assay: SPR ProteOn XPR36;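 further: surface plasmon resonance with CD40-Fc fusions captured through their Fc on an anti-human IgG chip, sensorgrams reference-subtracted against surfaces lacking CD40-Fc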
# Experimental: (§1) Assays were performed on a BioRad ProteOn XPR36 SPR instrument. The SPR surfaces were prepared by immobilizing 8 μg/ml anti-human IgG(Fc) antibody (Biacore/GE Healthcare) in 10 mM sodium acetate pH 4.5 on a BioRad GLC sensor chip using standard ethyl(dimethylaminopropyl) carbodiimide (EDC)/N-hydroxysuccinimide (NHS) chemistry, with ethanolamine blocking. The running buffer for immobilization and kinetic binding analysis was 10 mM sodium phosphate, 130 mM sodium chloride, 0.05% tween 20, pH 7.1. CD40-Fc fusion proteins at concentrations of 20 μg/ml were captured in the vertical orientation on these surfaces via the Fc tail, and reference surfaces lacking CD40-Fc proteins were used for reference subtraction. […] The surfaces were regenerated in both horizontal and vertical orientations with 30 s pulses of 3 M MgCl₂ followed by running buffer at 60 μl/min. Sensogram data was double-referenced and then fitted to a 1:1 Langmuir model using BioRad ProteOn Manager V.2.1.0.38 software, to determine the association rate constant (ka), the dissociation rate constant (kd), and the equilibrium dissociation constant (KD).
row,Binder,binding result
1,B1,no binding (tested: 405 nM)
2,B2,no binding (tested: 405 nM)
3,B3,no binding (tested: 405 nM)
4,B4,no binding (tested: 405 nM)
5,B5,no binding (tested: 405 nM)
6,B6,no binding (tested: 405 nM)

# Biological target: T1, human CD40 (H76R, W109L, L121P) Fc …
# Assay: SPR ProteOn XPR36;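 further: surface plasmon resonance with CD40-Fc fusions captured through their Fc on an anti-human IgG chip, sensorgrams reference-subtracted against surfaces lacking CD40-Fc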
# Experimental: as §1
row,Binder,binding result
1,B1,no binding (tested: 405 nM)
2,B2,no binding (tested: 405 nM)
3,B3,no binding (tested: 405 nM)
4,B4,no binding (tested: 405 nM)
5,B5,no binding (tested: 405 nM)
6,B6,no binding (tested: 405 nM)

# Biological target: T2, wild type cynomolgus monkey CD40 Fc …
# Assay: SPR ProteOn XPR36;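 further: surface plasmon resonance with CD40-Fc fusions captured through their Fc on an anti-human IgG chip, sensorgrams reference-subtracted against surfaces lacking CD40-Fc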
# Experimental: as §1
row,Binder,binding result
1,B1,no binding (tested: 405 nM)
2,B2,no binding (tested: 405 nM)
3,B3,no binding (tested: 405 nM)
4,B4,no binding (tested: 405 nM)
5,B5,no binding (tested: 405 nM)
6,B6,no binding (tested: 405 nM)

# Biological target: T5, human CD40 (BMS, CY24FEB06-01) (human, UniProt P25942 21-193)
# T5 construct: Soluble human CD40 reagent of the ELISA RBA
# Assay: ELISA RBA, competition with IZ-CD40L for soluble human CD40;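 further: Neutravidin-coated 384-well plates, dAb–human CD40 complex incubated 2 h at room temperature, read-out as absorbance at 450 nm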
# Experimental: Clear walled High Bind, 384-well plates (Corning, UK) were coated with 25 μl of 1 μg/ml Neutravidin in 0.2 M carbonate-bicarbonate buffer, pH 9.4 overnight at 4° C. The following day, assay plates were washed with 0.1% (v/v) Tween PBS buffer, blocked with 1% (w/v) BSA in PBS for 1 hour at room temperature and washed again. […] Following washing of the assay plate, the dAb:human CD40 complex was incubated in the assay plate at room temperature for 2 hours with gentle agitation. […] Absorbance signal was measured using a SpectraMax® M5e plate reader (Molecular Devices) at 450 nm following neutralization with 1M HCl solution.
row,Binder,EC50
1,B7,3.7 nM and 2.3 nM
2,B8,5.2 nM and 4.3 nM
3,B9,3.2 nM and 4.6 nM

# Biological target: T6, human CD40 (BMS, CY24FEB06-01) (human, UniProt P25942 21-193)
# T6 construct: Soluble reagent of the bead and ELISA RBA; It is detected with an anti-human IgG (Fc) mAb, so it may be a CD40-Ig fusion
# Assay: bead RBA, competition with IZ-CD40L
row,Binder,EC50
1,B10,3700 nM and 3000 nM
2,B11,600 nM and 650 nM
3,B12,2000 nM and 1600 nM

# Biological target: human CD40 (human, UniProt P25942 21-277)
# Assay: cell-based or functional assay
Binder,hIZCD40L-driven Human B Cell Proliferation EC50 [nM],CHO-hCD40L-driven DC Activation IL-12 EC50 [nM],T-B cell MLR EC50 [nM],CHO-hCD40L-driven Human B Cell Proliferation EC50 [nM]
B13,83,–,–,–
B14,713,–,–,–
B15,6,–,–,–
B16,2700,–,–,–
B17,55,–,–,–
B18,437,–,–,–
B19,> 7000,–,–,–
B20,360,–,–,–
B21,3400,–,–,–
B22,5,13,198,–
B23,2800,–,–,–
B24,10,289,986,723

# Biological target: T3, Macaca fascicularis CD40
# Assay: cell-based or functional assay
row,Binder,hIZCD40L-driven Cyno B Cell Proliferation EC50 [nM]
1,B13,> 7000
2,B14,> 7000
3,B15,> 7000
4,B16,> 7000
5,B17,> 7000
6,B18,> 7000
7,B19,> 7000
8,B20,> 7000
9,B21,> 7000
10,B22,> 7000
11,B23,> 7000
12,B24,> 7000

# Biological target: human CD40 on RAMOS human B cells (human, UniProt P25942 21-277)
# Assay: cell-based or functional assay
row,Binder,EC50 ICAM1 cell assay [nM]
1,B7,10
2,B25,80
3,B8,70
4,B26,5
5,B9,40

# — patent US20200199244A1 (published 2020)
